One data set addresses T1, V5-Tin (UniProt P22711).
T1 sequence: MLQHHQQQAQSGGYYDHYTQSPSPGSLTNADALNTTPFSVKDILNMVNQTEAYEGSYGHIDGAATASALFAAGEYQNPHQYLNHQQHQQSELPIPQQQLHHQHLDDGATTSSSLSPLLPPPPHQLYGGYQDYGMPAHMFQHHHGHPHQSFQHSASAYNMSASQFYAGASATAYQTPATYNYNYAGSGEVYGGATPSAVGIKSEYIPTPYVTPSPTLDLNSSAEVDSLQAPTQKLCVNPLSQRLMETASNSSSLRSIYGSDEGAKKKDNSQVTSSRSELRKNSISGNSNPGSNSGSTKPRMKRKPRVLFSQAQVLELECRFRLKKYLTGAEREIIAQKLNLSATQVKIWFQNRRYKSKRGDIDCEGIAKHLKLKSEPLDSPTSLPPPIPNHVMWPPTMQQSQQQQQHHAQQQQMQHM
Kind of data set: EMSA. Particulars: 20 mM HEPES pH 7.9, 1.4 mM MgCl2, 1 mM ZnSO4, 40 mM KCl, 0.1 mM EDTA, 5% glycerol, 0.2 ug poly(dI-dC), 0.1 ug BSA, 10 mM DTT, 0.1% NP40, 30 ul, 20 min; gel 6% …. (In general: Mobility shift assays separate free from complexed probe on a gel.)

For data set [1], the target named is GST-Ubx^FL (full length) (Drosophila) (UniProt P83949). Kind of data set: pull-down; GST or GST-Ubx fusion proteins in equal amounts with His-purified proteins; affinity buffer (20 mM HEPES, 10 uM ZnCl2, 0.1% Triton, 2 mM EDTA) with NaCl, 1 mM DTT, 0.1 mM PMSF; 2 h at 4 °C; western blot.
Chain of GST-Ubx^FL (full length) (Drosophila) (P83949 whole entry, the tested form may be a part): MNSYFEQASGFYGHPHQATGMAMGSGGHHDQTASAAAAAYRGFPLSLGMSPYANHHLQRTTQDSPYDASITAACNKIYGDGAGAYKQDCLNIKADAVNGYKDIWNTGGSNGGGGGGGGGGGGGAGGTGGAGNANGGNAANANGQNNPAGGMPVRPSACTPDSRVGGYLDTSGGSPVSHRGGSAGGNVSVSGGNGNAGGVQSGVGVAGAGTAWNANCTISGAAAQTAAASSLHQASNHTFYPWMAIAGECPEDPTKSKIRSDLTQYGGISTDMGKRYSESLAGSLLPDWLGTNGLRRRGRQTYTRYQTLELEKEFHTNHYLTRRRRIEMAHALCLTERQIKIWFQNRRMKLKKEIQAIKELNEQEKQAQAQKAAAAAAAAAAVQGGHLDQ

Regarding “CAATCGCTGTAAATAAATAGGAGCCGCAGATCAAAGGCCTATCAATTAGCACCCATTTCGATTATGCTGCATGCTGCATATGCAGCACTTGCACTGCCTGCAATTCACACCCAATTAGTAATAAATTTGAATGCGCGCTGCAATTTGCCG (double strand) [dpp674 enhancer fragment F3 (150 bp)]”, in the data set with V5-Tin, the binding result is “binds”.

B1: V5-Tin, His-purified (natural protein)
chain: T1 sequence
In turn, B1 showed a fold stronger than the Ubx-Exd interaction (signal in pull-down compared with input) in data set [1] of over 10 fold.

The values are drawn from article PMC7069958, “Multi-level and lineage-specific interactomes of the Hox transcription factor Ubx contribute to its functional specificity”.
